Assay results reported in paper PMC4997814.

Assays:
[1] = target: T1, Recombinant CYP26B1 (UniProt Q9NR63)
T1 sequence: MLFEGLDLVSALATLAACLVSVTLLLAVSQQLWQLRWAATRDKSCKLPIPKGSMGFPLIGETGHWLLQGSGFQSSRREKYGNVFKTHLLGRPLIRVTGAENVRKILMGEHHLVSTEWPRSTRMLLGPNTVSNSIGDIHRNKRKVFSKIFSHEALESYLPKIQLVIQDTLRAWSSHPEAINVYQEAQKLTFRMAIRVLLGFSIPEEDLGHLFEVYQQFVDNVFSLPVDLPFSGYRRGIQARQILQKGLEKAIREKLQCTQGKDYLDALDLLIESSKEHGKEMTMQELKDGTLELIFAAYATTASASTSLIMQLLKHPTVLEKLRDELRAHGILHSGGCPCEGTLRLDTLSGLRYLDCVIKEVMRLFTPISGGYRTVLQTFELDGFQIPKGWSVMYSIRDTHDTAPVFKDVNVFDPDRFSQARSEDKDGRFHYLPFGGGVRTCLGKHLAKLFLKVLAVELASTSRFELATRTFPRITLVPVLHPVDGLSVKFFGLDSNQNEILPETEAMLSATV

[2] = target: CYP2C8 Supersomes (UniProt P10632)
Chain of UniProt P10632 (P10632 whole entry): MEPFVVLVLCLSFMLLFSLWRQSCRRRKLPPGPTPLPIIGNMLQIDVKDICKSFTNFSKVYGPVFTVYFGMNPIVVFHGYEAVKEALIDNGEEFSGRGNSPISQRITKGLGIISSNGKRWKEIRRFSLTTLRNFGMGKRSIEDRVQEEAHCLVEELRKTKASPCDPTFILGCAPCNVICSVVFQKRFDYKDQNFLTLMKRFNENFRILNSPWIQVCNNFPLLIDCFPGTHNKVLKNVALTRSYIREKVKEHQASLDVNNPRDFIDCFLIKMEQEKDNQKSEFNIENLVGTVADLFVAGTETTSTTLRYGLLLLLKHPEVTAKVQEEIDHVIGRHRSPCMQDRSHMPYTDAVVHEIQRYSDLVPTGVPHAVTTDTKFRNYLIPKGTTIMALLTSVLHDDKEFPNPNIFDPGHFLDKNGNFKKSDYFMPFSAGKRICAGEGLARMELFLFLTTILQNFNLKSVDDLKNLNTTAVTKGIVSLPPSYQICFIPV

[3] = target: CYP3A4 Supersomes (UniProt P08684)
Chain of UniProt P08684 (P08684 whole entry): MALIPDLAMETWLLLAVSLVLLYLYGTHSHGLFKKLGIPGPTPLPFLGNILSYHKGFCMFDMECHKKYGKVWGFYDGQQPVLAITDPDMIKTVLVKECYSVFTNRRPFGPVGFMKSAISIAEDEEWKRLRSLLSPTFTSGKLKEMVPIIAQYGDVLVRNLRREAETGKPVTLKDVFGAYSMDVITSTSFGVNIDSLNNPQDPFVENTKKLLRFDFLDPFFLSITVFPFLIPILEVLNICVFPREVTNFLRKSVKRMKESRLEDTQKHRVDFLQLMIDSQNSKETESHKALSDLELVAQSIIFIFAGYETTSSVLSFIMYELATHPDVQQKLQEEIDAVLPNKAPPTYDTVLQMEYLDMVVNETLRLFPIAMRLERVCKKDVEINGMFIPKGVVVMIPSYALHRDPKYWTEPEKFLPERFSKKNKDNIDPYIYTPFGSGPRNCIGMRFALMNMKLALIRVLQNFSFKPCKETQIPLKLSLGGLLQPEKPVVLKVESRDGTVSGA

Molecule	apparent Km of 4-OH-RA formation by CYP26B1 with holo-CRABP-I as substrate [1] [µM]	decrease of 4-OH-RA formation by CYP2C8 with 1 uM holo-CRABP-I against free atRA [2] [%]	decrease of 4-OH-RA formation by CYP3A4 with 1 uM holo-CRABP-I against free atRA [3] [%]	apparent Km of 4-OH-RA formation by CYP26B1 with holo-CRABP-II as substrate [1] [µM]
Cellular retinoic acid binding protein I (CRABP-I) (from UniProt P29762 1-137) (natural protein)	0.0217	98	98	–
Cellular retinoic acid binding protein II (CRABP-II) (natural protein) MPNFSGNWKIIRSENFEELLKVLGVNVMLRKIAVAAASKPAVEIKQEGDTFYIKTSTTVRTTEINFKVGEEFEEQTVDGRPCKSLVKWESENKMVCEQKLLKGEGPKTSWTRELTNDGELILTMTADDVVCTRVYVRE	–	–	–	0.0243
